A protein production outcome set (Wang et al. 2014)

Test: label from the status in PepcDB records

Sequence	protein production
MSRENNVQSTRAERKTLILALVAGMCSDALLSWLTMSSVPFSLFALIALVLSAQMLYQEYLAHPVAEEVPLVGLACFFVGAFGHSAFIKAQYPQEGSNFFSIVIVLLLIFWIGRKLGYIGKPR	failed
MSRFPRRFIDDSSMEDAGISLCPSIHYRPINPNDLDRLEQIHRDIFPIKYESEFFQSVVNGVDIVSWAAVDRSRPDDHSDELIGFVTAKFVLAKDSEIDDLIHYDSSKGEETLIYILTLGVVETYRNRGIAMSLISEVIKYASGLSVCRGVYLHVIAHNNAAICLYKRLMFRCVRRLHGFYLINRHHFDAFLFVYFINGSRTPCSPLEVAMFVVNYMKSGIKSVASKLANKDEKGLKWLFCKDTDCV	failed
MSRKRSTKPKPAAKIALKKENDQFLEALKLYEGKQYKKSLKLLDAILKKDGSHVDSLALKGLDLYSVGEKDDAASYVANAIRKIEGASASPICCHVLGIYMRNTKEYKESIKWFTAALNNGSTNKQIYRDLATLQSQIGDFKNALVSRKKYWEAFLGYRANWTSLAVAQDVNGERQQAINTLSQFEKLAEGKISDSEKYEHSECLMYKNDIMYKAASDNQDKLQNVLKHLNDIEPCVFDKFGLLERKATIYMKLGQLKDASIVYRTLIKRNPDNFKYYKLLEVSLGIQGDNKLKKALYGKLEQFYPRCEPPKFIPLTFLQDKEELSKKLREYVLPQLERGVPATFSNVKPLYQRRKSKVSPLLEKIVLDYLSGLDPTQDPIPFIWTNYYLSQHFLFLKDFPKAQEYIDAALDHTPTLVEFYILKARILKHLGLMDTAAGILEEGRQLDLQDRFINCKTVKYFLRANNIDKAVEVASLFTKNDDSVNGIKDLHLVEASWFIVEQAEAYYRLYLDRKKKLDDLASLKKEVESDKSEQIANDIKENQWLVRKYKGLALKRFNAIPKFYKQFEDDQLDFHSYCMRKGTPRAYLEMLEWGKALYTKPMYVRAMKEASKLYFQMHDDRLKRKSDSLDENSDEIQNNGQNSSSQKKKAKKEAAAMNKRKETEAKSVAAYPSDQDNDVFGEKLIETSTPMEDFATEFYNNYSMQVREDERDYILDFEFNYRIGKLALCFASLNKFAKRFGTTSGLFGSMAIVLLHATRNDTPFDPILKKVVTKSLEKEYSENFPLNEISNNSFDWLNFYQEKFGKNDINGLLFLYRYRDDVPIGSSNLKEMIISSLSPLEPHSQNEILQYYL	failed
MSRKRTENGSESGPATSHVPVDRFGFLKQEHANSPERFSKSKTTSSTDHDREERKVRKWRKMIGVGGSDWKHYVRRKPNVVRRRIRKGIPDCLRGLVWQLISGSRDLLLMNPGVYEQLVIYETSASELDIIRDISRTFPSHVFFQKRHGPGQRSLYNVLKAYSVYDRDVGYVQGMGFIAGLLLLYMSEEDAFWLLVALLKGAVHAPMEGLYHAGLPLVQQYLFQLESLVKELIPKLGEHFTQEMINPSMYASQWFITVFSYSFPFPLALRIWDVFLSEGVKIVFKVGLALLKYCQDELVSKVTV	failed
MSRMETSRTLSAFPKIISVDDHTVEPPDVWRDRLPKKYQDTGPRIVRAPLKEMTFLGGKFAPVMGGPGDDGPLGDWWVYEDLHRPLTRLDTAVGYSRDEIKLEVITYEQMRPGSYDVPRRLADMDVNHVQSALCFPTFPRFCGQTFTEAKDRELGLLGVRAYNDWMVEEWCGPDAHGRLIPLTLVPLWDARLAAAEVRRNAARGVRAVAFSEIPPHLGLPSVHTDDWDPFLAACDETGTVIAMHIGSSSRMPSTSADAPPAVGSTITFANCCFSMVDWLMSGKFERFPNLRVMYAEGQIGWIPYILERADVVWEENRGWGGVADKVHRPPSELFAGHVFGCFFDDAFGLRNLDAIGIGNVLYETDYPHSDSTWPKSREVGEAQMGHLEAEVVERIVRGNAIELLGLTDDGLWAGPGGAR	failed
MSRPADKPQPFYFAYGSNMNPAQIEARCRKPEVVATARLPDHRLGFFGSSKIWDGGEESAQPEPGADLWGVVYRLSFHDAEILDTWQKVWLDGTGPYFHFPTQVFDAEGRNYPVLLYKRDVLGPRQKPSAPYLDHIIAGAMARALPPPYIDLLRAIPTCQASTPVPRKASFNPEFFAGLACQCGDLEHHHHHH	failed
MSRQANRGTESKKMSSELFTLTYGALVTQLCKDYENDEDVNKQLDRMGYNIGVRLIEDFLARSNVGRCHDFRETADVIAKVAFKMYLGITPSITNWSPAGDEFSLILENNPLVDFVELPDNHSALIYSNLLCGVLRGALEMVQMAVEAKFVQDTLKGDGVTEIRMRFIRRIEDNLPAGEE	not failed
MSRQFIIQLFLALLLCCLTITFSSIAKSAETTSTDDATDLVVAQKIIKNQQQTEKSSSASAVAVQQPQIANDMADGQSIRNLPSLNEPVIDQANLLSSEQRQALSDQIRQLYQTGKAQMAVVIVPTTGQEDIFDYAMRVGEKWQLGSAKRDNGILMAIAVNDRRIQILTGYGLEGVLPDIVVGRIIRDQITPYFKQAQYAQGIQSGVNEIEKIVNMDPEIAQQAAQDLKQRQEQALHEQQARSQMMVYSLIIVVVGIFASYIVGNRLSAATAGVAGIAAGVISGVGLITSLLIGLGIFLLLITSLAQLILQIFASGGGRGGGGGFGGGGGGGYSGGGGSFGGGGASGSW	failed
MSRRDFTRYVRDKAWLAIPGWLFVAALTLLALRKHLSNLRQHQQLLQGNERIRDSEEQARLILDTAPLALLLVNPQTARIRHANSLAREMLGLPPRDPEQAAGSELNLPLKLQPVEQWLSEGEEVLQQEVELELEDKSRLWAIVSLRRLGHDSQPSALIALYDISGRKLLEQQLHESNQQLAEMAVTDPLTRLYNRRHADMVLRDEISRCERYGQTMAIAVFDIDHFKRFNDQYGHQAGDDVLVAVANALRDTTRNTDINARIGGEEFMVIFPYTRLRDAHKVMSRLQMALTHTTFPFVEQRITFSGGVTDWRPGDSPALMMSRADKLLYDAKQAGRNVVLSDQEEA	failed
MSRRSHNPQSCSSVPTALINGPRVETMTDSVLDVTADALEQAGAHPHRLVVRQHGQVVGRRRWAPWSPDVPSLVYSCSKTFTSAAVGIAVNRGAFGYDDTLADLWPQACTANTGPVAKSMTVRNALSMSTGHSPEQLLEPTLMSRRLPDLNTARILLATEPEGRPGIDFAYNNLATWMLSRLVAQHTGEDVDTIITKEVLDPIGAGPHTWVRDADGIPMGFSGLHIDAEDLSLFGQLLLDDGVHEGARLLPEEWIRQHRVRQVNCDSETDPEWGMGYGWQTWMSSHGYRLDGAFGQYVLIVPEVDAVITMTNEASEGPGDKQAILQAVWDHLLPALADGFQPQPEEIVRTVPTVTGEFDSARSVQGIAPDGSYIVVSPHKESRTWAMSWRCPGTFSHPTDETLDIAVGYEEWQTSHCRVGDDAIDIATSGGWQGETFVARLCVISTPHTLTLRMTPEATTTEWDNEPLNPGGLLGLVHPELRR	failed
MSRVFVIGAAGKVGQRLIKKLGDGGHEVIALHRKEEQSVLIKAAGALPLLANLVEMDAAALSSAMAGSDVVVFTAGAGGAGIELTNAIDGEGLKTSVAAAELAGVRRFLLVSAFPEAARGTDTSAGFENYMRVKKHADVCLASSELDWVILRPGTLVDSAGSGQVRAGLAIPYGDIPRDDVAAFLAALVDQPEISRQIIELTEGTTPVELAIKALGTR	failed
MSRVSLRLWDPLVRLFHVSIAGVFVANYFFNEAGDDWHIWLGYYAVAWLAVRVVWGFLGPTSARWSDFWPSPARLRAHVRSLIDRKPVHRLGHSPLGALVMVLMMALIFGMGLTGFLMEEVDALWGADWPLQTHEILANTLCALVVLHMAAAIFESFQVRDNLPLSMLTGKRRPLPEDDYR	failed
MSRYRLREHAWCLRQLNVSNKSFLKRSFLVGLGYTPPIRYFIDIGPLPNWTRKEVNELILGRTRVRSPILKLLIELFVHRICSDPRFQVKSSSVNA	failed
MSSALLRAAYAYDRLRAHPPEVAGQIATAMASAVHPKGEEPVFLELGVGTGRIALPLIARGYRYIALDADAAMLEVFRQKIAGVDRKVQVVQADARAIPLPDESVHGVIVVHLWHLVPDWPKVLAEAIRVLKPGGALLEGWDQAEASPEWTLQERWRAFAAEEGFPVERGLHAKRLKEVEEALRRLGLKPRTREVARWREERTPREALEALSERLYSFTQGLPEPVHARVMERLWAWAEAELGDLDRPFPVEKRFLLRVSRLG	not failed
